Data taken from patent US12618845B2, “Methods and compositions for protein sequencing” (Quantum-Si Incorporated, priority 2018, dated 2026).
Read-outs that look alike come from different tables or passages of the source.

System: peptide substrates
Type: biochemical

B1: VPr: Vibrio proteolyticus aminopeptidase (protein)
chain: MPPITQQATVTAWLPQVDASQITGTISSLESFTNRFYTTTSGAQASDWIASEWQALSASLPNASVKQVSHSGYNQKSVVMTITGSEAPDEWIVIGGHLDSTIGSHTNEQSVAPGADDDASGIAAVTEVIRVLSENNFQPKRSIAFMAYAAEEVGLRGSQDLANQYKSEGKNVVSALQLDMTNYKGSAQDVVFITDYTDSNFTQYLTQLMDEYLPSLTYGFDTCGYACSDHASWHNAGYPAAMPFESKFNDYNPRIHTTQDTLANSDPTGSHAKKFTQLGLAYAIEMGSATGDTPTPGNQ
HPLC Assay Conv (substrate AAMAAM{LYSN3}NH2 (SEQ ID NO: 74), 1 mM peptide, 2 mM enzyme, 2.5 mM ZnCl2, 25 mM Tris pH 8.0, 30° C./1 hr): 100%
HPLC Assay Conv (substrate AAPAAP{LYSN3}NH2 (SEQ ID NO: 98), 1 mM peptide, 2 mM enzyme, 2.5 mM ZnCl2, 25 mM Tris pH 8.0, 30° C./1 hr): 100%
HPLC Assay Conv (substrate AAPFQQ (SEQ ID NO: 118), 1 mM Peptide, 1 μM enzyme, 10 mM Mg(OAc)2, 50 mM MOPS pH 8, 60 mM KOAc, RT/0.5 hr): 100%
HPLC Assay Conv (substrate CCPFQQ (SEQ ID NO: 144), 1 mM Peptide, 1 μM enzyme, 10 mM Mg(OAc)2, 50 mM MOPS pH 8, 60 mM KOAc, RT/0.5 hr): 70%
HPLC Assay Conv (substrate DDPFQQ (SEQ ID NO: 126), 1 mM Peptide, 1 uM enzyme, 10 mM Mg(OAc)2, 50 mM MOPS pH 8, 60 mM KOAc, RT/0.5 hr): 0%
HPLC Assay Conv (substrate EEPFQQ (SEQ ID NO: 128), 1 mM Peptide, 1 uM enzyme, 10 mM Mg(OAc)2, 50 mM MOPS pH 8, 60 mM KOAc, RT/0.5 hr): 0%
HPLC Assay Conv (substrate FFPFFP{LYSN3}NH2 (SEQ ID NO: 94), 1 mM peptide, 2 mM enzyme, 2.5 mM ZnCl2, 25 mM Tris pH 8.0, 30° C./1 hr): 100%
HPLC Assay Conv (substrate FFPFQQ (SEQ ID NO: 124), 1 mM Peptide, 1 μM enzyme, 10 mM Mg(OAc)2, 50 mM MOPS pH 8, 60 mM KOAc, RT/0.5 hr): 100%
HPLC Assay Conv (substrate GGPFQQ (SEQ ID NO: 152), 1 mM Peptide, 1 μM enzyme, 10 mM Mg(OAc)2, 50 mM MOPS pH 8, 60 mM KOAc, RT/0.5 hr): 8%
HPLC Assay Conv (substrate HHPFQQ (SEQ ID NO: 154), 1 mM Peptide, 1 μM enzyme, 10 mM Mg(OAc)2, 50 mM MOPS pH 8, 60 mM KOAc, RT/0.5 hr): 12%
HPLC Assay Conv (substrate IIPFQQ (SEQ ID NO: 136), 1 mM Peptide, 1 μM enzyme, 10 mM Mg(OAc)2, 50 mM MOPS pH 8, 60 mM KOAc, RT/0.5 hr): 100%
HPLC Assay Conv (substrate KKMKKM{LYSN3}NH2 (SEQ ID NO: 89), 1 mM peptide, 2 mM enzyme, 2.5 mM ZnCl2, 25 mM Tris pH 8.0, 30° C./1 hr): 100%
HPLC Assay Conv (substrate KKPFQQ (SEQ ID NO: 120), 1 mM Peptide, 1 μM enzyme, 10 mM Mg(OAc)2, 50 mM MOPS pH 8, 60 mM KOAc, RT/0.5 hr): 32%
HPLC Assay Conv (substrate KKPKKP{LYSN3}NH2 (SEQ ID NO: 100), 1 mM peptide, 2 mM enzyme, 2.5 mM ZnCl2, 25 mM Tris pH 8.0, 30° C./1 hr): 100%
HPLC Assay Conv (substrate LLPFQQ (SEQ ID NO: 138), 1 mM Peptide, 1 μM enzyme, 10 mM Mg(OAc)2, 50 mM MOPS pH 8, 60 mM KOAc, RT/0.5 hr): 100%
HPLC Assay Conv (substrate MMPFQQ (SEQ ID NO: 148), 1 mM Peptide, 1 μM enzyme, 10 mM Mg(OAc)2, 50 mM MOPS pH 8, 60 mM KOAc, RT/0.5 hr): 100%
HPLC Assay Conv (substrate NNPFQQ (SEQ ID NO: 130), 1 mM Peptide, 1 μM enzyme, 10 mM Mg(OAc)2, 50 mM MOPS pH 8, 60 mM KOAc, RT/0.5 hr): 15%
HPLC Assay Conv (substrate PPPFQQ (SEQ ID NO: 150), 1 mM Peptide, 1 μM enzyme, 10 mM Mg(OAc)2, 50 mM MOPS pH 8, 60 mM KOAc, RT/0.5 hr): 0%
HPLC Assay Conv (substrate QP5-Atto649N ([…]{LYSN3}NH2) (SEQ ID NO: 106), 37 μM Peptide, 8 μM Enzyme, 2.5 mM ZnCl2, 25 mM Tris pH 8.0, 37° C./0.5 hr): 100%
HPLC Assay Conv (substrate QP15 […]{LYSN3}NH2 (SEQ ID NO: 107), 1200 μM Peptide, 0.008 μM enzyme, 10 mM Mg(OAc)2, 50 mM MOPS pH 5.5, RT/0.5 hr): 1.40%
HPLC Assay Conv (substrate QP15 […]{LYSN3}NH2 (SEQ ID NO: 107), 1200 μM Peptide, 0.008 μM enzyme, 10 mM Mg(OAc)2, 50 mM MOPS pH 6.5, RT/0.5 hr): 56%
HPLC Assay Conv (substrate QQPFQQ (SEQ ID NO: 132), 1 mM Peptide, 1 μM enzyme, 10 mM Mg(OAc)2, 50 mM MOPS pH 8, 60 mM KOAc, RT/0.5 hr): 66%
HPLC Assay Conv (substrate RRPFQQ (SEQ ID NO: 116), 1 mM Peptide, 1 μM enzyme, 10 mM Mg(OAc)2, 50 mM MOPS pH 8, 60 mM KOAc, RT/0.5 hr): 79%
HPLC Assay Conv (substrate RRPRRP{LYSN3}NH2 (SEQ ID NO: 96), 1 mM peptide, 2 mM enzyme, 2.5 mM ZnCl2, 25 mM Tris pH 8.0, 30° C./1 hr): 100%
HPLC Assay Conv (substrate SSPFQQ (SEQ ID NO: 140), 1 mM Peptide, 1 μM enzyme, 10 mM Mg(OAc)2, 50 mM MOPS pH 8, 60 mM KOAc, RT/0.5 hr): 48%
HPLC Assay Conv (substrate TTPFQQ (SEQ ID NO: 142), 1 mM Peptide, 1 μM enzyme, 10 mM Mg(OAc)2, 50 mM MOPS pH 8, 60 mM KOAc, RT/0.5 hr): 100%
HPLC Assay Conv (substrate VVPFQQ (SEQ ID NO: 134), 1 mM Peptide, 1 μM enzyme, 10 mM Mg(OAc)2, 50 mM MOPS pH 8, 60 mM KOAc, RT/0.5 hr): 100%
HPLC Assay Conv (substrate WWPFQQ (SEQ ID NO: 146), 1 mM Peptide, 1 μM enzyme, 10 mM Mg(OAc)2, 50 mM MOPS pH 8, 60 mM KOAc, RT/0.5 hr): 82%
HPLC Assay Conv (substrate YYMYYM{LYSN3}NH2 (SEQ ID NO: 103), 1 mM peptide, 2 mM enzyme, 2.5 mM ZnCl2, 25 mM Tris pH 8.0, 30° C./1 hr): >90%
HPLC Assay Conv (substrate YYPFQQ (SEQ ID NO: 122), 1 mM Peptide, 1 μM enzyme, 10 mM Mg(OAc)2, 50 mM MOPS pH 8, 60 mM KOAc, RT/0.5 hr): 56%
HPLC Assay Conv (substrate YYPYYP{LYSN3}NH2 (SEQ ID NO: 92), 1 mM peptide, 2 mM enzyme, 2.5 mM ZnCl2, 25 mM Tris pH 8.0, 30° C./1 hr): 50%
